T1: MCPH1 (tag-free) (Mus musculus, UniProt Q7TT79 1-822)
T1 sequence: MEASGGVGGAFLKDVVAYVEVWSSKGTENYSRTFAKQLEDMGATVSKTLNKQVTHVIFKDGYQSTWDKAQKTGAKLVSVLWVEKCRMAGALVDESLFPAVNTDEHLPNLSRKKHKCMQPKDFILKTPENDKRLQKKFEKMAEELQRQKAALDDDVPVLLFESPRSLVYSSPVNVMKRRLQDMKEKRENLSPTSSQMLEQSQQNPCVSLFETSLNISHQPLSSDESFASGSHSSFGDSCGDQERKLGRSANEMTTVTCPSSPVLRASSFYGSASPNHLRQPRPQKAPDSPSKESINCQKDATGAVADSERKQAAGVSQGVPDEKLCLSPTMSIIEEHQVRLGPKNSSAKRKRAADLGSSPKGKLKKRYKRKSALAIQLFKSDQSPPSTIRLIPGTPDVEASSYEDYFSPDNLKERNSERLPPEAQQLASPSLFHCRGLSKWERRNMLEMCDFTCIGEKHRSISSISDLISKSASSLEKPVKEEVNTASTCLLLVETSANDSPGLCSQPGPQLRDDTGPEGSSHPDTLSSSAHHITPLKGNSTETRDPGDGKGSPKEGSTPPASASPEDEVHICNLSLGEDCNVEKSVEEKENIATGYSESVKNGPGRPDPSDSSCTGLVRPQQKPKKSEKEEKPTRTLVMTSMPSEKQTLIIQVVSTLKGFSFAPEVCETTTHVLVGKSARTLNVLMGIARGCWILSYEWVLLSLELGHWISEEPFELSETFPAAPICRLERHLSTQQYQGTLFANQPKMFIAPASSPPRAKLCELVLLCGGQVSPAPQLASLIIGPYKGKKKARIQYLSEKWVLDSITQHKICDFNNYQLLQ

T2: (His)6-MBP-tagged mouse MCPH1 (Microcephalin 1) (mouse, UniProt Q7TT79 1-822)
T2 construct: mouse MCPH1 (microcephalin 1), wild type, cDNA NM_173189.2; calculated molecular mass of the untagged protein 90,372 Da; A PreScission protease site lies between the (His)6-MBP tag and MCPH1; the uncleaved, tagged protein was used in the pull-downs; Tag-free MCPH1 (tag cleaved) was used in the Benzonase protection and TPM assays; also called (His)6-MBP-MCPH1; wild-type MCPH1; source: Expi293F …
T2 sequence (looked up): T1 sequence

B1: (His)6-SUMO-tagged mouse MCPH1 fragment, amino acids 287-383 (central region containing the nuclear localization signal) (domain or fragment, UniProt Q7TT79 287-383, looked up)
chain: DSPSKESINCQKDATGAVADSERKQAAGVSQGVPDEKLCLSPTMSIIEEHQVRLGPKNSSAKRKRAADLGSSPKGKLKKRYKRKSALAIQLFKSDQS
notes: mouse MCPH1, residues 287-383, containing the nuclear localization signal; also called truncated MCPH1 variant; source: E. coli BL21*(DE3)(pLys), purified (Ni-NTA); not shown: His6, N-terminal, kept; SUMO, N-terminal, kept
B2: (His)6-SUMO-tagged mouse MCPH1 fragment, amino acids 384-476 (central region containing a Condensin-II binding region) (domain or fragment, UniProt Q7TT79 384-476, looked up)
chain: PPSTIRLIPGTPDVEASSYEDYFSPDNLKERNSERLPPEAQQLASPSLFHCRGLSKWERRNMLEMCDFTCIGEKHRSISSISDLISKSASSLE
notes: also called truncated MCPH1 variant; source: E. coli BL21*(DE3)(pLys), purified (Ni-NTA); not shown: His6, N-terminal, kept; SUMO, N-terminal, kept
B3: (His)6-SUMO-tagged mouse MCPH1 fragment, amino acids 628-822 (C-terminus, containing BRCT2 and BRCT3) (domain or fragment, UniProt Q7TT79 628-822, looked up)
chain: EKEEKPTRTLVMTSMPSEKQTLIIQVVSTLKGFSFAPEVCETTTHVLVGKSARTLNVLMGIARGCWILSYEWVLLSLELGHWISEEPFELSETFPAAPICRLERHLSTQQYQGTLFANQPKMFIAPASSPPRAKLCELVLLCGGQVSPAPQLASLIIGPYKGKKKARIQYLSEKWVLDSITQHKICDFNNYQLLQ
notes: mouse MCPH1, residues 628-822, containing BRCT2 and BRCT3; also called truncated MCPH1 variant; source: E. coli BL21*(DE3)(pLys), purified (Ni-NTA); not shown: His6, N-terminal, kept; SUMO, N-terminal, kept
B4: (His)6-SUMO-tagged mouse MCPH1 fragment, amino acids 1-190 (N-terminus, containing BRCT1) (domain or fragment, UniProt Q7TT79 1-190, looked up)
chain: MEASGGVGGAFLKDVVAYVEVWSSKGTENYSRTFAKQLEDMGATVSKTLNKQVTHVIFKDGYQSTWDKAQKTGAKLVSVLWVEKCRMAGALVDESLFPAVNTDEHLPNLSRKKHKCMQPKDFILKTPENDKRLQKKFEKMAEELQRQKAALDDDVPVLLFESPRSLVYSSPVNVMKRRLQDMKEKRENLS
notes: mouse MCPH1, residues 1-190, containing BRCT1; also called truncated MCPH1 variant; source: E. coli BL21*(DE3)(pLys), purified (Ni-NTA); not shown: His6, N-terminal, kept; SUMO, N-terminal, kept
B5: Oligo 3 ssDNA (ssDNA)
DNA: GCCGTCGCATGACGCTGCCGAATTCTACCACGCTACTAGGGTGCCTTGCTAGGACATCTTTGCCCACCTGCAGGTTCACCCCGTCCCTGGC
B6: D-loop (Oligo 2+3+4) (mixed)
DNA 1: B5 DNA
DNA 2: GCCAGGGACGGGGTGAACCTGCAGGTGGGCGGCTGCTCATCGTAGGTTAGTATCGACCTATTGGTAGAATTCGGCAGCGTCATGCGACGGC
DNA 3: AAGATGTCCTAGCAAGGCACCCTAGTAGC
B7: dsDNA (Oligo 5+9) (dsDNA)
DNA 1: ACGCTGCCGAATTCTACCAGTGCCTTGCTAGGACATCTTTGCCCACCTGCAGGTTCACCC
DNA 2: GGGTGAACCTGCAGGTGGGCAAAGATGTCCTAGCAAGGCACTGGTAGAATTCGGCAGCGT
B8: 3'-overhang DNA (Oligo 5+10) (mixed)
DNA 1: B7 DNA 1
DNA 2: AGGCACTGGTAGAATTCGGCAGCGT
B9: Holliday junction (Oligo 5+6+7+8) (structured_DNA)
DNA 1: B7 DNA 1
DNA 2: GGGTGAACCTGCAGGTGGGCAAAGATGTCCATCTGTTGTAATCGTCAAGCTTTATGCCGT
DNA 3: ACGGCATAAAGCTTGACGATTACAACAGATCATGGAGCTGTCTAGAGGATCCGACTATCG
DNA 4: CGATAGTCGGATCCTCTAGACAGCTCCATGTAGCAAGGCACTGGTAGAATTCGGCAGCGT
B10: Strep-tagged mouse RAD51 (natural protein, UniProt Q08297 1-339, looked up)
chain: MAMQMQLEASADTSVEEESFGPQPISRLEQCGINANDVKKLEEAGYHTVEAVAYAPKKELINIKGISEAKADKILTEAAKLVPMGFTTATEFHQRRSEIIQITTGSKELDKLLQGGIETGSITEMFGEFRTGKTQICHTLAVTCQLPIDRGGGEGKAMYIDTEGTFRPERLLAVAERYGLSGSDVLDNVAYARGFNTDHQTQLLYQASAMMVESRYALLIVDSATALYRTDYSGRGELSARQMHLARFLRMLLRLADEFGVAVVITNQVVAQVDGAAMFAADPKKPIGGNIIAHASTTRLYLRKGRGETRICKIYDSPCLPEAEAMFAINADGVGDAKD
notes: mouse RAD51 recombinase; (His)6-tagged mouse RAD51 was used in the Benzonase protection and TPM assays; also called RAD51 recombinase
B11: Strep-tagged mouse DMC1 (natural protein, UniProt Q61880 1-340, looked up)
chain: MKEDQVVQEESGFQDDEESLFQDIDLLQKHGINMADIKKLKSVGICTIKGIQMTTRRALCNVKGLSEAKVEKIKEAANKLIEPGFLTAFQYSERRKMVFHITTGSQEFDKLLGGGIESMAITEAFGEFRTGKTQLSHTLCVTAQLPGTGGYSGGKIIFIDTENTFRPDRLRDIADRFNVDHEAVLDNVLYARAYTSEHQMELLDYVAAKFHEEAGIFKLLIIDSIMALFRVDFSGRGELAERQQKLAQMLSRLQKISEEYNVAVFVTNQMTADPGATMTFQADPKKPIGGHILAHASTTRISLRKGRGELRIAKIYDSPEMPENEATFAITAGGIGDAKE
notes: mouse DMC1, the meiotic RAD51 homolog; (His)6-tagged mouse DMC1 was used in the Benzonase protection assay; also called meiotic recombinase DMC1

Columns and labels:
Strep-tagged mouse RAD51 = molecular target: B10; assay: pull-down; (His)6-SUMO-tagged MCPH1 fragments (2 μg) with Strep-tagged RAD51 or DMC1 (2 μg), same procedure (buffer D, Benzonase, Talon resin); SDS-PAGE and western blot with RAD51 or DMC1 antibody; conditions: both partners purified
Strep-tagged mouse DMC1 = molecular target: B11; assay: as above; conditions: both partners purified
MCPH1 (tag-free) = molecular target: T1, MCPH1 (tag-free); assay: EMSA; 50 mM KCl; EMSA: 35 mM Tris-HCl pH 7.5, 1 mM DTT, 50 mM KCl, 0.1 ug/ul BSA, 37 C, 5 min; DNA 750 nM (oligos) or 6 uM (PhiX174) nucleotides/bp. TPM: 100 mM KCl (150 mM high salt); conditions: protein: recombinant, tags: none (His6-MBP removed with PreScission)
[1] = molecular target: T2, (His)6-MBP-tagged mouse MCPH1 …; assay: pull-down; (His)6-MBP-MCPH1 (4 μg) incubated with recombinase (1 μg) in 30 μl buffer D (25 mM Tris-HCl pH 7.5, 10% glycerol, 0.01% Igepal, 100 mM KCl, 10 mM imidazole) 30 min at 37°C with Benzonase and 2 mM MgCl2; captured on Talon resin via the (His)6 tag; SDS-PAGE with Coomassie Blue staining; conditions: both partners purified

binding result (Strep-tagged mouse RAD51) | binding result (Strep-tagged mouse DMC1) | Binder | further results
binds | binds | B1 | –
binds | binds | B2 | –
binds | binds | B3 | –
binds | binds | B4 | –
– | – | B5 | binding result (MCPH1 (tag-free); label: 5'-32P, single strand): binds
– | – | B6 | binding result (MCPH1 (tag-free); label: 5'-32P on Oligo 3, D-loop, Oligo 2 and 3 pair at both ends, Oligo 4 pairs in the bubble of Oligo 3): binds
– | – | B7 | binding result (MCPH1 (tag-free); label: 5'-32P on Oligo 5, blunt): binds
– | – | B8 | binding result (MCPH1 (tag-free); label: 5'-32P on Oligo 5, 3' overhang 35 nt): binds
– | – | B9 | binding result (MCPH1 (tag-free); label: 5'-32P on Oligo 5, four-way junction 1:2 2:3 3:4 4:1): binds
– | – | B10 | binding result [1]: binds
– | – | B11 | binding result [1]: binds

Reference: paper PMC7498314, “Microcephaly family protein MCPH1 stabilizes RAD51 filaments” (Nucleic Acids Research, 2020)
